Target: M6P receptor (M6PR)
Experiment: SPR (BIACORE T200), M6PR amine-coupled on CM5 chip, conjugate 200 nM to 12.5 nM, 1:1 Langmuir model

M6PR Binding Affinity (relative to imiglucerase = 100%): 22%
Substance: imiglucerase long-acting conjugate (from UniProt P04062 40-536; P01861 107-327)
